Patent publication US20260151494A1 (ARO BIOTHERAPEUTICS, published 2026)
Residue numbers refer to the chain shown, from its start.

B1: CD71-binding FN3 domain of SEQ ID NO: 166 (designed binder)
chain: MSLPAPKNLVVSRVTEDSARLSWTAPDAAFDSFEIGYFENLYLGEAIVLTVPGSERSYDLTGLKPGTEYWVQIGGIKGGNWSAPLSAIFTT
B2: CD71-binding FN3 domain of SEQ ID NO: 172 (designed binder)
chain: MSRPAPKNLVVSRVTEDSARLSWTAPGAAFDSFEIAYFERTWFGEAIVLTVPSSERSYDLTGLKPGTEYWVQIGGVKGGDWSKPLSAIFTT
B3: CD71-binding FN3 domain of SEQ ID NO: 175 (designed binder)
chain: MSLPAPKNLVVSRVTEDSARLSWTAPDAAFDSFEIAYQELSLWGEAIVLTVPGSERSYDLTGLKPGTEYVVFIGGVKGGVWSVPLSAIFTT
B4: CD71-binding FN3 domain of SEQ ID NO: 191 (designed binder)
chain: B1 chain with T61A, I76V
B5: CD71-binding FN3 domain of SEQ ID NO: 189 (designed binder)
chain: B1 chain with N40H, L41T, L43Y, I76V
B6: CD71-binding FN3 domain of SEQ ID NO: 201 (designed binder)
chain: MSLPAPKNLVVSRVTEDSARLSWTAPDAAFDSFEIAYFEGTFHGEAIVLFVPGSERSYDLTGLKPGTEYAVWIGGVKGGDYSRPLSAAFTT
B7: CD71-binding FN3 domain of SEQ ID NO: 171 (designed binder)
chain: B1 chain with I76V, N80E, A83S
B8: CD71-binding FN3 domain of SEQ ID NO: 199 (designed binder)
chain: B1 chain with S54Y, I76V
B9: CD71-binding FN3 domain of SEQ ID NO: 183 (designed binder)
chain: B1 chain with V11I, G36V, F38A, N40P, L41V, Y42R, L43F, I76V, N80E, A83S
B10: CD71-binding FN3 domain of SEQ ID NO: 169 (designed binder)
chain: B1 chain with I76V, I88T
B11: CD71-binding FN3 domain of SEQ ID NO: 176 (designed binder)
chain: B1 chain with E34F, F38L, N40P, L41Q, Y42P, L43P, V48H, T50F, I76V
B12: CD71-binding FN3 domain of SEQ ID NO: 186 (designed binder)
chain: B1 chain with L41P, I76V
B13: CD71-binding FN3 domain of SEQ ID NO: 194 (designed binder)
chain: B1 chain with W70P, Q72W, I76V, N80T, A83V, A87T
B14: CD71-binding FN3 domain of SEQ ID NO: 174 (designed binder)
chain: B1 chain with D27N, I76V
B15: CD71-binding FN3 domain of SEQ ID NO: 192 (designed binder)
chain: B1 chain with I76V, N80W, W81G, A83N
B16: CD71-binding FN3 domain of SEQ ID NO: 182 (designed binder)
chain: B3 chain with K7E, A36G, Q38W, L40N, S41A, L42Y, W43K, A87V
B17: CD71-binding FN3 domain of SEQ ID NO: 170 (designed binder)
chain: B1 chain with I76V, A83T
B18: CD71-binding FN3 domain of SEQ ID NO: 193 (designed binder)
chain: B1 chain with I76V, A83E
B19: CD71-binding FN3 domain of SEQ ID NO: 187 (designed binder)
chain: B1 chain with F38W, L41A, L43K, W70R, Q72W, I76V, N80V, A83R
B20: CD71-binding FN3 domain of SEQ ID NO: 200 (designed binder)
chain: B1 chain with I76V, G79S
B21: CD71-binding FN3 domain of SEQ ID NO: 173 (designed binder)
chain: B3 chain with V70Y, F72H, V80I, V83S, S86V, I88H
B22: CD71-binding FN3 domain of SEQ ID NO: 184 (designed binder)
chain: B2 chain with R3L, L21P, G27D, S53G
B23: CD71-binding FN3 domain of SEQ ID NO: 177 (designed binder)
chain: B1 chain with G62S, I76V
B24: CD71-binding FN3 domain of SEQ ID NO: 181 (designed binder)
chain: B1 chain with L41D, L43F, I76V
B25: CD71-binding FN3 domain of SEQ ID NO: 190 (designed binder)
chain: B1 chain with V11I, I76V, F89S
B26: CD71-binding FN3 domain of SEQ ID NO: 188 (designed binder)
chain: B3 chain with A36G, Q38W, L40N, S41A, L42Y, W43K, V80H, W81G, V83Q
B27: CD71-binding FN3 domain of SEQ ID NO: 195 (designed binder)
chain: B1 chain with V10I, I76V, G79S

Target: T1, human CD71 extracellular domain (human, UniProt P02786 89-760)
T1 construct: also called hCD71; human CD71-ECD
Test: primary ELISA; note: test concentration or dose not given here

T1 sequence (P02786 89-760): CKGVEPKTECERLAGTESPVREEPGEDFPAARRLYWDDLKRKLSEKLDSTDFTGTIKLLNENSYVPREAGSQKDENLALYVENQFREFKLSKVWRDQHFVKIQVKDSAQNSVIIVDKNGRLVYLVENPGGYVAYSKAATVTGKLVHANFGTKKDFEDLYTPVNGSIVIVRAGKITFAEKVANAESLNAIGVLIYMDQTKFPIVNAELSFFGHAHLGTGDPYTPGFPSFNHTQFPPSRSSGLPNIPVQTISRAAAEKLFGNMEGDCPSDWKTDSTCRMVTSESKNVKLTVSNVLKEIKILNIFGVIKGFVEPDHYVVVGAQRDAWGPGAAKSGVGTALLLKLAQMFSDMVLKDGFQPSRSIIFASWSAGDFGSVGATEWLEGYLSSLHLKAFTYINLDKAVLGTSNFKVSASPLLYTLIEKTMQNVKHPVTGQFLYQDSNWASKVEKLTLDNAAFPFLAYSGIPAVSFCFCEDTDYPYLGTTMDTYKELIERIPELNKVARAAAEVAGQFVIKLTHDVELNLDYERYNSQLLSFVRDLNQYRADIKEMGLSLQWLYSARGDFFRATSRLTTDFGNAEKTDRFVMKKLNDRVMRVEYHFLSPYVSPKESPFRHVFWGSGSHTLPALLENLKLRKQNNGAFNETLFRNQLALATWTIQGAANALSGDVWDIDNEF

Row | Binder | RLU
1 | B1 | 4.44e+06 RLU
2 | B2 | 4.34e+06 RLU
3 | B3 | 1.01e+06 RLU
4 | B4 | 4.2e+06 RLU
5 | B5 | 3.45e+06 RLU
6 | B6 | 1.59e+06 RLU
7 | B7 | 4.4e+06 RLU
8 | B8 | 4.45e+06 RLU
9 | B9 | 3.19e+06 RLU
10 | B10 | 2.63e+06 RLU
11 | B11 | 7.01e+06 RLU
12 | B12 | 3.63e+06 RLU
13 | B13 | 2.56e+06 RLU
14 | B14 | 3.61e+06 RLU
15 | B15 | 2.67e+06 RLU
16 | B16 | 3.81e+06 RLU
17 | B17 | 3.81e+06 RLU
18 | B18 | 2.33e+06 RLU
19 | B19 | 3.06e+06 RLU
20 | B20 | 3.49e+06 RLU
21 | B21 | 4.41e+06 RLU
22 | B22 | 3.74e+06 RLU
23 | B23 | 3.22e+06 RLU
24 | B24 | 2.84e+06 RLU
25 | B25 | 3.66e+06 RLU
26 | B26 | 1.11e+06 RLU
27 | B27 | 2.88e+06 RLU

Target: T2, apical domain of cynomolgus CD71 (cynomolgus, UniProt A0A2K5X958 189-383)
T2 construct: domain: apical domain; also called Cyno apical domain
Test: primary ELISA; note: test concentration or dose not given here

T2 sequence (A0A2K5X958 entry or part of it): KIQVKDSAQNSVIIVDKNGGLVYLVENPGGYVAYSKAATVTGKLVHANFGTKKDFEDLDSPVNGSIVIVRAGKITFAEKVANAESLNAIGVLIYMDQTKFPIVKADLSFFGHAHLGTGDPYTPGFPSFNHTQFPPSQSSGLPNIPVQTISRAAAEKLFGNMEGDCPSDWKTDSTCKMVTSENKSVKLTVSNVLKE

Row | Binder | RLU
28 | B1 | 5.02e+06 RLU
29 | B2 | 5.23e+06 RLU
30 | B3 | 4.29e+06 RLU
31 | B4 | 4.99e+06 RLU
32 | B5 | 4.87e+06 RLU
33 | B6 | 3.01e+06 RLU
34 | B7 | 4.93e+06 RLU
35 | B8 | 4.9e+06 RLU
36 | B9 | 4.47e+06 RLU
37 | B10 | 4.35e+06 RLU
38 | B11 | 6.06e+06 RLU
39 | B12 | 4.75e+06 RLU
40 | B13 | 3.78e+06 RLU
41 | B14 | 4.71e+06 RLU
42 | B15 | 3.91e+06 RLU
43 | B16 | 4.96e+06 RLU
44 | B17 | 5e+06 RLU
45 | B18 | 3.95e+06 RLU
46 | B19 | 4.22e+06 RLU
47 | B20 | 4.72e+06 RLU
48 | B21 | 5.65e+06 RLU
49 | B22 | 5.08e+06 RLU
50 | B23 | 4.54e+06 RLU
51 | B24 | 4.61e+06 RLU
52 | B25 | 5.2e+06 RLU
53 | B26 | 3.37e+06 RLU
54 | B27 | 4.2e+06 RLU

Target: T1, human CD71 extracellular domain
Test: primary ELISA, signal ratio to HSA

Row | Binder | hCD71:HSA
55 | B1 | 153
56 | B2 | 31
57 | B3 | 21
58 | B4 | 92
59 | B5 | 1380
60 | B6 | 40
61 | B7 | 109
62 | B8 | 170
63 | B9 | 108
64 | B10 | 289
65 | B11 | 172
66 | B12 | 117
67 | B13 | 52
68 | B14 | 127
69 | B15 | 61
70 | B16 | 101
71 | B17 | 127
72 | B18 | 68
73 | B19 | 67
74 | B20 | 127
75 | B21 | 234
76 | B22 | 74
77 | B23 | 110
78 | B24 | 133
79 | B25 | 48
80 | B26 | 33
81 | B27 | 106

Target: T2, apical domain of cynomolgus CD71
Test: primary ELISA, signal ratio to HSA

Row | Binder | Cyno apical domain:HSA
82 | B1 | 173
83 | B2 | 37
84 | B3 | 91
85 | B4 | 109
86 | B5 | 1950
87 | B6 | 76
88 | B7 | 122
89 | B8 | 187
90 | B9 | 15
91 | B10 | 478
92 | B11 | 149
93 | B12 | 153
94 | B13 | 77
95 | B14 | 165
96 | B15 | 90
97 | B16 | 131
98 | B17 | 166
99 | B18 | 116
100 | B19 | 93
101 | B20 | 172
102 | B21 | 300
103 | B22 | 101
104 | B23 | 156
105 | B24 | 216
106 | B25 | 68
107 | B26 | 100
108 | B27 | 155
